From article PMC8277567, “Thermostable D-amino acid decarboxylases derived from Thermotoga maritima diaminopimelate decarboxylase” (Protein Engineering, Design and Selection, 2021)

Tests used:
[1] = tested on: N[C@H](CCC[C@H](N)C(=O)O)C(=O)O; assay: purified protein; details: 100 mM TEA-HCl pH 7.8, PLP, 10 mM MgCl2, 30 C, DAP 0-10 mM
NC(CCCCC(=O)O)C(=O)O = assay: purified protein; details: similar conditions to wild-type assay; 2-APA 0-10 mM; racemic substrate

Substance | Km [1] | kcat [1] [s⁻¹] | Km (NC(CCCCC(=O)O)C(=O)O) | kcat (NC(CCCCC(=O)O)C(=O)O) [s⁻¹]
TmDAPDC (diaminopimelate decarboxylase from T. maritima) (Thermotoga maritima MSB8) | 0.27 (0.06) mM | 0.075 |  | 
TmDAPDC (diaminopimelate decarboxylase from T. maritima) (Thermotoga maritima MSB8; E315T) |  |  | 0.32 (0.03) mM | 0.2
